The EC50 (read off the curve) is the concentration needed to bring the measured effect to its halfway point. A word on the Kd: it is the concentration at which binding is half-saturated.

A value given as a limit tells only on which side of the number the result lay.

Experimental findings from US20110287023A1 (AstraZeneca / MedImmune, published 2011) are described below.

The target in experiment [1] is T1, HMG1 B Box peptide amino acids 150-183.
T1 peptide: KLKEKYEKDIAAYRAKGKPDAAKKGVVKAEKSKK
The experiment in a line: ELISA, HMG1 B Box peptide 150-183 coated at 10 ug/ml, antibody titrated, OD 450. On the procedure: (§1) The plate was then blocked with 4% milk powder dissolved in PBS at 37° C. for 1 hour. The blocking solution was removed and replaced with human anti-HMG1 antibodies at various concentrations (see FIGS. 5A-B). […] HRP activity was detected with Sureblue HRP substrate (KPL). Plates were read at 450 nm using a Kinetic Microplate Reader (Molecular Devices). […] After washing and blocking with 1% BSA in PBS, the biotinylated peptides were individually added into the avidin coated wells and incubated for 30 min at room temperature. The serial diluted antibody G4, S16 and S6 at the initial concentration at 10 μg/ml were then transferred into the wells followed by adding mouse anti human IgG-HRP conjugate (Pierce). Detection was accomplished by adding 50 μl of tetramethylbenzidine (TMB) substrate (KPL) and the absorbance was read at 450 nm.

For experiment [2], the target named is T2, recombinant HMG1 produced in E. coli as a calmodulin binding protein (CBP) fusion (human).
T2 construct: also called rHMG1; rHMGB1
Description: sandwich ELISA: antibody titrated and captured on anti-human IgG Fc, soluble recombinant HMG1 at 2 ug/ml, mouse anti-HMGB1 and anti-mouse IgG-HRP, OD 450. On the procedure:
Sandwich ELISA (soluble HMG1): Immunoplates (EIA/RIA plate, High binding, Costar) were coated with anti human IgG Fc at 10 μg/ml in PBS (pH 7.2) and incubated at 4° C. overnight. The coating reagent was removed and the plates were rinsed briefly with PBS. The plates were then blocked with 4% milk for 1 hour at 37° C. and rinsed with PBS. The anti-HMG1 antibodies were diluted in 4% milk. For serial dilutions, the antibodies were used at a starting concentration of 20 μg/ml. The diluted anti-HMG1 antibodies were then added into plate and incubated for 1 hr at 37° C. The plate was then washed 10 times with PBST (PBS/0.1% tween 20) and incubate with antigen (HMGB1, 2 μg/ml; or 0.7 μg/ml for native HMGB1) in 4% milk and incubated at 37° C. for 1 h. The plate was then wash 10 times and incubated with mouse anti-HMGB1, 1 μg/ml in 4% milk at 37° C. for 1 h. The plate was washed 10 times and incubated with anti-mouse IgG-HRP at 1:1000 at 37° C. for 1 h. The plate was then washed and developed. HRP activity was detected with Sureblue HRP substrate (KPL). Plates were read at 450 nm using a Kinetic Microplate Reader (Molecular Devices).

Experiment [3] concerns the target T2, recombinant HMG1 produced in E. coli as …. The experiment in a line: ELISA, coated RAGE-Fc, rHMG1 preincubated with antibody. As to the method: HMG1 binding to RAGE-Ig by ELISA: 50 μl/well of RAGE-Fc fusion protein at 5 μg/ml in PBS was added to each well of an ELISA plate and incubated overnight at 4° C. The plate was then blocked with 200 μl of 5% milk at 37° C. for 1 hr and washed 3× with PBS/Tween. 50 μl/well of diluted HMGB1 solution. For dose curves, HMGB1 concentrations started at 4 ug/ml in PBS. For antibody blocking the HMGB1 was preincubated in another plate with human anti-HMG1 antibodies or buffer, then transferred to the RAGE-coated plate. The plates were then incubated at room temperature for 2 hours and washed 3×. To detect any HMG1 bound to the immobilized RAGE-Fc a mixture of biotinylated mouse anti-HMG1 mAbs (10D4, 4H11, 3E10 and 5C12) each at 1 ug/ml, total Ab: 4 ug/ml, were added to each well and the plate was incubated for 1 hour at room temperature. The plate was then washed and Strepavidin-HPR was added to each well and incubated 15 min. The plate was then washed 3× and blotted dry. 100 μl of TMB developing agent was added and the plate read at 650 nm. Values were calculated as percent of inhibition with HMG1 alone equal to 0% inhibition. The data in FIG. 9 and summarized in Table 1 represent the average of two separate experiments.
In general terms: An ELISA detects its analyte on a solid surface through an enzyme-linked reagent.

The target is the same in experiment [4]. The experiment in a line: cell-based or functional assay.
Experiment [5] has as its target T3, HMG1 B Box peptide amino acids 91-169.
T3 construct: also called HMG1 peptide 91-169
T3 peptide: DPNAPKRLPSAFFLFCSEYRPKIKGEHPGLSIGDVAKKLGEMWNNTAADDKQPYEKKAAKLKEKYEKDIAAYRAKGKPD
Description: ELISA, HMG1 B Box peptide 91-169 coated at 10 ug/ml, antibody titrated, OD 450. As to the method:
as §1

Experiment [6] deals with T2, recombinant HMG1 produced in E. coli as …. The experiment in a line: BIAcore 3000, mAb amine-coupled to CM5, HMG1 injected, steady-state model. On the procedure: HMG1 Binding Affinity via BIAcore Analysis: All experiments were performed on a BIAcore 3000 instrument (BIAcore, Inc., Piscataway, N.J.). Briefly, each mAb was immobilized to a CM5 sensor chip using a standard amine coupling chemistry. Separately a reference (control) flow cell was also prepared. Two-fold, serial dilutions of HMG1 in instrument buffer were sequentially injected at a slow flow rate over the individual mAb and reference flow-cell surfaces. Following the binding and dissociation of HMG1, the mAbs surfaces were regenerated with a brief pulse of 1M NaCl-50 mM NaOH. At the end of each experiment, the binding curves were evaluated using a steady-state model available through the BIAevaluation software supplied by BIAcore, Inc. (Piscataway, N.J.).
(In SPR one partner is held on a chip, and binding of the other changes the refractive index at the surface.)

Experiment [7] deals with T4, HMG2 coated on ELISA plates (Bos taurus (Bovine), UniProt P40673 2-209).
T4 construct: also called HMGB2; HMBG2
T4 sequence: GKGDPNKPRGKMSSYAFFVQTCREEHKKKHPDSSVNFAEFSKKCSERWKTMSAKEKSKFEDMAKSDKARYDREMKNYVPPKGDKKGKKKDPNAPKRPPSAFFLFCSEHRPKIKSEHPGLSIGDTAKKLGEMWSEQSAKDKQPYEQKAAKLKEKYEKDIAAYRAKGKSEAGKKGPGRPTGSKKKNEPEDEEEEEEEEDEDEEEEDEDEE
The experiment in a line: direct ELISA, HMGB2 coated at 5 ug/mL, OD 490. As to the method: (§2) Binding to HMG1 vs. HMG2: Ultra high-binding ELISA plates (ThermoLab systems, #3855) were coated with either 5 ug/mL of Calf thymus HMGB1 or HMBG2 diluted in 10 mM Phosphate buffered saline (PBS), pH 7.2 and incubate overnight at 4 degrees. The plates were washed twice with Ca and Mg free PBS and 100 microliters of anti-HMGB1 antibody diluted in 10 mM PBS, pH 7.2+1% bovine serum albumin (BSA) to a final concentration of 10 ug/mL was added to each well and the plates were incubated 1 hour at room temperature. The wells were washed three times with 100 μl of PBS, pH 7.2. HRP labeled goat-anti-human IgG Kappa-chain (KPL, #14-10-10) and goat-anti-human IgG Lambda-chain (KPL, #14-10-11) were diluted in 10 mM PBS+1% BSA 1:1000 and 100 μl were added to each well and incubated for 1 hour at room temperature. The wells were then washed three times with 100 μl of PBS, pH 7.2. OPD substrate (Pierce chemical company, #34006) was prepared following the manufacturers instructions and 100 μl of prepared substrate was added to each well and the plates incubated at room temperature in the dark for 20-30 minutes. The reaction was stopped with the addition of 100 μl of 2M H₂SO₄, and the plates read on a plate reader at a wavelength of 490 nm.

Experiment [8] concerns the target T5, HMG1 purified from calf (bovine) thymus (bovine, UniProt P10103 2-215).
T5 construct: also called Calf thymus HMGB1; thymus HMG1
T5 sequence (looked up): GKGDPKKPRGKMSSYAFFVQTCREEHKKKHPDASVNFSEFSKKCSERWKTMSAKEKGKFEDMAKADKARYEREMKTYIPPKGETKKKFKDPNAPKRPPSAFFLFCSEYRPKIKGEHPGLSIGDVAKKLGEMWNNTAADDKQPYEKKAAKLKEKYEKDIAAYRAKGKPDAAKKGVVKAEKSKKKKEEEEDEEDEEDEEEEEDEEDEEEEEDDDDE
The experiment in a line: direct ELISA, calf thymus HMGB1 coated at 5 ug/mL, antibody at 10 ug/mL, anti-human kappa/lambda-HRP, OD 490. On the procedure:
as §2

Experiment [9] addresses T6, activated HMG1 from LPS stimulated THP-1 cells (human, UniProt P09429 1-215).
T6 sequence (looked up): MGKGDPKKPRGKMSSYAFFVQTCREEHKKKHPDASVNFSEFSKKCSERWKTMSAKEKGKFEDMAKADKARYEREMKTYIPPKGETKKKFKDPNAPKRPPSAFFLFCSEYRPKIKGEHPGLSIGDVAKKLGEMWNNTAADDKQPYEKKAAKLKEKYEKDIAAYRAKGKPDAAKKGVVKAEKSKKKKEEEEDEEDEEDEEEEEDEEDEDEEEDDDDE
Description: cell-based or functional assay.

B1: human anti-HMG1 antibody S2 (antibody, V domains shown)
VH: EVQLLESGGGLVQPGGSLRLSCAASGFTFSGYMMVWVRQAPGKGLEWVSRISPSGGQTGYADSVKGRFTISRDNSKNTLYLQMNSLRAEDTAVYYCAREEGGSYGAFDIWGQGTMVTVSS
VL: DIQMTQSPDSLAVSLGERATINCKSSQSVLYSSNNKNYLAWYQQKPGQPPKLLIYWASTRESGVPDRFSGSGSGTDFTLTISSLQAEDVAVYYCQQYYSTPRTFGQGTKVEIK
notes: full length IgG1 made from a human Fab phage clone; also called ATCC PTA-6142
For B1, the binding result is reported as “no binding (tested: 10 ug/ml (log 1.0))” in [1], “no binding (tested: 10 ug/ml (log 1.0))” in [5], “no binding (tested: 10 ug/mL (single concentration))” in experiment [7] and “binds” in experiment [8]. Moreover, in experiment [2], the “EC50 (read off the curve)” value is about 0.08 µg/mL. Further, in experiment [3], the “percent inhibition of HMG1 binding to RAGE” value was at least 35%. The “IC50 IL-1β” value in experiment [4] was 0.22 µg/mL. In [4], the “IC50 IL-6” value was determined as 0.163 nM. Also, the “IC50 TNF-α” value in experiment [4] stood at 0.0642 µg/mL. Moreover, the Kd in experiment [6] was 36 nM.

B2: human anti-HMG1 antibody S17 (antibody, IgG1, V domains shown)
VH: EVQLLESGGGLVQPGGSLRLSCAASGFTFSYYDMHWVRQAPGKGLEWVSRISPSGGYTWYADSVKGRFTISRDNSKNTLYLQMNSLRAEDTAVYYCTRGRYTSGWHEYFDPWGQGTLVTVSS
VL: DIQMTQSPSSLSASVGDRVTITCRASQSIGTYLNWYQQKPGTAPKVLIYAASSLQSGVPSRFSGSGSGTDFTLTISSLQPEDFSTYYCQQSYNTPRTFGQGTKLEIK
notes: full length IgG1 made from a human Fab phage clone
Turning to B2, the binding result is listed as “no binding (tested: 10 ug/ml (log 1.0))” in experiment [1], “no binding (tested: 10 ug/ml (log 1.0))” in [5], “no binding (tested: 10 ug/mL (single concentration))” in experiment [7] and “binds” in [8]. In addition, in experiment [9], the “IC50 nm IL-6 Native HMGB” value was 11.4 nM. For the same molecule, in [4], the “IC50 IL-1β” value was 0.0809 µg/mL. Besides, the “IC50 IL-6” value in experiment [4] amounted to 0.162 nM. For the same molecule, the “IC50 NO” value in experiment [4] stood at 41.7 µg/mL. For the same molecule, the Kd in [6] is 331 nM.

B3: human anti-HMG1 antibody S10 (antibody, IgG1, V domains shown)
VH: EVQLLESGGGLVQPGGSLRLSCAASGFTFSWYDMWWVRQAPGKGLEWVSWIVPSGGITAYADSVKGRFTISRDNSKNTLYLQMNSLRAEDTATYYCARGNYGPSPFDYWGQGTLVTVSS
VL: DIQMTQSPGTLSLSPGERATLSCRATQSVRKNFLAWYQQKPGQAPRLLIYDASSRATGIPDRFSGSGSGTDFTLTISRLEPEDFAVYYCQQYGNSPIIFGQGTRLEIK
notes: as for B2
As for B3, the binding result in [1] is given as “no binding (tested: 10 ug/ml (log 1.0))”. The “percent inhibition of HMG1 binding to RAGE” value in [3] is at least 35%. Moreover, in experiment [4], the “IC50 IL-1β” value was determined as 2.59 µg/mL, the “IC50 IL-6” value was found to be 0.324 nM, the “IC50 IL-12” value is 1.13 µg/mL and the “IC50 TNF-α” value turned out to be 0.875 µg/mL. In addition, the binding result in [5] is listed as “no binding (tested: 10 ug/ml (log 1.0))”. Moreover, the Kd in [6] was determined as 54 nM. In experiment [7], the binding result is listed as “no binding (tested: 10 ug/mL (single concentration))”. Further, in experiment [8], the binding result is on record as “binds”.
